Results from publication PMC4684408, “Co-evolution of Bacterial Ribosomal Protein S15 with Diverse mRNA Regulatory Structures”.

Key:
Tt-S15 = Tt-S15 (Thermus thermophilus, UniProt Q5SJ76); assay: filter binding; 50 mM Tris/acetate pH 7.5, 20 mM Mg-acetate, 270 mM KCl, 5 mM DTT, 0.02% BSA, RNA <1 nM, 30 min at 25 C (thermophile RNAs also at 55 C); details: protein: recombinant, label: 5'-32P
Gk-S15 [1] = target: T1, Gk-S15 (UniProt Q5L0I3 1-89); assay: as above; details: protein: recombinant, label: 5'-32P
Gk-S15 [2] = target: T1, Gk-S15; assay: filter binding; max fraction bound <20%; 50 mM Tris/acetate pH 7.5, 20 mM Mg-acetate, 270 mM KCl, 5 mM DTT, 0.02% BSA, RNA <1 nM, 30 min at 25 C (thermophile RNAs also at 55 C); details: protein: recombinant; label: 5'-32P
Rr-S15 = Rr-S15 (UniProt A0ABD5LGG5 1-89); assay: filter binding; 50 mM Tris/acetate pH 7.5, 20 mM Mg-acetate, 270 mM KCl, 5 mM DTT, 0.02% BSA, RNA <1 nM, 30 min at 25 C (thermophile RNAs also at 55 C); details: protein: recombinant; label: 5'-32P
Chain of Rr-S15 (A0ABD5LGG5 entry or part of it): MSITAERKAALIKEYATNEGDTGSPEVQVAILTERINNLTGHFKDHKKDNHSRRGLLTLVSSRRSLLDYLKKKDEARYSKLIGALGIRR

Ec-S15 [3] = target: T2, Ec-S15 (Escherichia coli, UniProt P0ADZ4 1-89); assay: as above
Ec-S15 [4] = target: T2, Ec-S15; assay: filter binding; 5'-32P and 3'-pCp label; 50 mM Tris/acetate pH 7.5, 20 mM Mg-acetate, 270 mM KCl, 5 mM DTT, 0.02% BSA, RNA <1 nM, 30 min at 25 C (thermophile RNAs also at 55 C)

Chain of Tt-S15 (Q5SJ76 2-89): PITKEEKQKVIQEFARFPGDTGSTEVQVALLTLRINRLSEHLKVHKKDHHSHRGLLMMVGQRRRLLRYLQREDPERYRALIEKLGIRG

B1: Tt-mRNA WT (structured_RNA)
RNA: GGCUUGGCGGGAGACCGCCUCGAGGAGGAAGGGGCUCAAAGCGCCUUCCCGCCUGACGGAGGGAAAACAUGCCCAUCACGAA
In the case of B1, the Kd (Tt-S15; three-way junction) is reported as 2.11 ± 0.25 nM and the Kd (Gk-S15 [1]; three-way junction) is reported as 0.35 ± 0.23 nM.

B2: Tt-mRNA M1 (structured_RNA)
RNA: GGCUUGGCGGGAGACCGCCAAAUGGAGGAAGGGGCUCAAAGCGCCUUCCCGCCUGACGGAGGGAAAACAUGCCCAUCACGAA
Binder B2 has a Kd (Gk-S15 [2]) of 76.3 ± 5.7 nM.

B3: Gk-mRNA M2 (structured_RNA)
RNA: GGUCAAUGUAUGCGAACCAUUCUCCGGCUAGGCGAGUCACCGACGCCCGCUCGGCAAUCGGGGAUCUAGGACUAGGGAGGUGAACAAGGAUGGCAUUGAA
B3: no binding (Tt-S15); no binding (Rr-S15); no binding (Ec-S15 [3]).

B4: Ec-mRNA WT (structured_RNA)
RNA: ACUGGGAUCGCUGAAUUAGAGAUCGGCGUCCUUUCAUUCUAUAUACUUUGGAGUUUUAAAAUGUCUCUAAGUACUGAAGCAACAGCU
B4: no binding (Ec-S15 [4]).

B5: Rr-mRNA M1 (structured_RNA)
RNA: GGAUAGGCAGCGCCAGCUUGGGCUUUGCCUAUGCUGCUGAAUGGCCAGAGAAAGACGACAUCCCGGCUCUAGGCGUCCCCGUUUUUCCUUAAAACAAGAAAGGAUCGUACGAUGUCGAUUACUGCAGAGCGCAAAGCC
B5 was tested, and the Kd (Tt-S15) was 8.8 ± 1.8 nM and the Kd (Gk-S15 [1]) was 11.8 ± 6.9 nM.
